Target: HLA-A2 (human)
Assay: T2 cells without peptide stained with MA2.1 mAb, flow cytometry (baseline of the stabilization assay)

mean channel fluorescence: 90
Substance: MA2.1 mAb (antibody)

From US20200157146A1
